EC50 data for 1 substance are collected here from patent CN106632674A.

Test [1] deals with PD-1ECD-TEV-mFc融合蛋白 (human). The test is described as follows: indirect ELISA, coated PD-1 Fc fusion (mFc form assumed for 5C4), run together with 6F5H1L1 and 6F5H2L2. Background: An ELISA detects its analyte on a solid surface through an enzyme-linked reagent.
Test [2] addresses PD-1ECD-TEV-mFc融合蛋白 (human). The test is described as follows: indirect ELISA, coated PD-1 Fc fusion (mFc form assumed for 5C4), run together with 6F5 and 6F5(Re).
Test [3] concerns the target PD-1ECD-TEV-hFc融合蛋白 (human). The test is described as follows: competition ELISA, antibody titrated from 1.5 ug/ml against PDL-1 Fc fusion (2 ug/ml; PDL-1-mFc assumed) on coated PD-1 Fc fusion (PD-1-hFc assumed).

For orientation: EC50 means the concentration that produces a half-maximal response. A higher EC50 goes with weaker potency.

Chain of PD-1ECD-TEV-mFc融合蛋白 (human) (main, as listed by the source, form in doubt): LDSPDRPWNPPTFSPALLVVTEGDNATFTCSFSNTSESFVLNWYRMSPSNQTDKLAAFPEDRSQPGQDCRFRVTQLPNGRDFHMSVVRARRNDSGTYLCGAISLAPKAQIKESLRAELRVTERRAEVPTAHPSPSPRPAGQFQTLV
Chain of PD-1ECD-TEV-hFc融合蛋白 (human) (main, as listed by the source, form in doubt): as above

For the substance 阳性对照抗体5C4 (antibody), the concentration giving a half-maximal response (EC50) in test [1] amounted to 233 pM; in test [2] it was 199 pM; in test [3], 1460 pM.
